T1: human VEGF C (human, UniProt P49767 103-227, limits assumed)
T1 construct: also called hVEGFC; hVEGF C
T1 sequence (looked up): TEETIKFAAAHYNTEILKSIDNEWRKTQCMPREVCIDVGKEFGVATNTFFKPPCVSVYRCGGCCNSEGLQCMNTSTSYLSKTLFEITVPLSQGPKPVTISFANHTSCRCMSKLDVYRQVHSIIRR


Assays:
human VEGF C [1] = target: T1, human VEGF C; assay: ELISA blocking: VEGFC-biotin captured on streptavidin plate; blocked receptor VEGFR2-Fc (0.2 ug/mL), detected with anti-human Fc-HRP, OD450
Protocol: The blocking effects of the antibodies of the present invention on the binding of hVEGFC to a receptor KDR were determined.
(§1) SA (streptavidin) was diluted to 1 μg/mL, and 100 μL/well of SA was plated in a microplate at 4° C. overnight. The plate was washed 3 times with PBST and blocked with 3% BSA for 1.5 h. The plate was washed 3 times with PBST, 50 ng/ml of VEGFC-biotin (biotin-labeled human VEGF C) was added, and the plate was incubated for 1.5 h. 50 μL of antibody was incubated with VEGFR2-Fc (with a final concentration of 0.2 μg/mL, Beijing Sino Biological) or VEGFR3-Fc (with a final concentration of 0.2 μg/mL, Beijing Sino Biological) for 20 min in advance, and the mixture was added to the plate. The plate was washed 3 times with PBST, an anti-human FcHRP antibody (diluted in a ratio of 1:10000, BETHYL) was added, and then the plate was incubated for 30 min. The plate was washed 6 times with PBST, the color development was performed with TMB (SOLARBIO) for 5 min, and OD450 nm was read after stopping.

human VEGF C [2] = target: T1, human VEGF C; assay: BLI (ForteBio), monovalent binding, 30 C
Protocol: (§2) The equilibrium dissociation constant (KD) for binding of the antibodies of the present invention to human VEGF C was determined by bio-layer interferometry (ForteBio). A ForteBio affinity assay of prior art was performed (Estep. P., et al., “High throughput solution Based measurement of antibody-antigen affinity and epitope binning”, MAbs, 2013.5(2): 270-8).
(§3) 100 μL of SD buffer, antibodies, and antigens (human VEGF C, Beijing Sino Biological) were added to a 96-well black polystyrene half-area microplate (Greiner, 675076). The sensors were arranged according to the positions of the samples. The instrument settings were as follows: the operation procedures were Baseline, Loading −1 nm, Baseline, Association, and Dissociation; the run time of each procedure was dependent on the rates of association and dissociation; the rotation speed was 400 rpm, and the temperature was 30° C. The KD values were analyzed by ForteBio analysis software.

human VEGF C [3] = target: T1, human VEGF C; assay: ELISA blocking: VEGFC-biotin captured on streptavidin plate; blocked receptor VEGFR3-Fc (0.2 ug/mL), detected with anti-human Fc-HRP, OD450
Protocol: as §1

human VEGF C [4] = target: T1, human VEGF C; assay: BLI (ForteBio), bivalent binding, 30 C
Protocol: as §2, §3

human VEGF C [5] = target: T1, human VEGF C; assay: BLI (ForteBio), bivalent binding, 30 C; * beyond the ForteBio detection limit
Protocol: as §2, §3

human VEGF C [6] = target: T1, human VEGF C; assay: ELISA blocking: VEGFC-biotin captured on streptavidin plate; blocked receptor VEGFR3-Fc (0.2 ug/mL), detected with anti-human Fc-HRP, OD450; remark: listed apart in the source
Protocol: as §1

human VEGF C [7] = target: T1, human VEGF C; assay: as above; remark: listed apart in the source
Protocol: as §1

human VEGF C [8] = target: T1, human VEGF C; assay: BLI (ForteBio), bivalent binding, 30 C; * beyond the ForteBio detection limit; bivalent binding, ForteBio; kdis at the detection limit
Protocol: as §2, §3

Molecule	IC50 (human VEGF C [1])	Kd (human VEGF C [2])	koff (human VEGF C [2])	kon (human VEGF C [2])	IC50 (human VEGF C [3])	Kd (human VEGF C [4])	kon (human VEGF C [4])	koff (human VEGF C [5])	IC50 (human VEGF C [6])	IC50 (human VEGF C [7])	koff (human VEGF C [8])
LA63G12 anti-VEGF C VHH antibody (VHH, The prokaryotic product was purified on Ni Sepharose) VHH: QLQLVESGGGLVQPGGSLRLSCAASGSSFSPYAMGWYRQAPGKQRELVAATTSGGSTLYADSVKGRFTISRDNAKNTVYLQMNSLKPEDTAVYYCYMHWRGSDPENYWGQGTQVTVSS	0.159 µg/mL	16.4 nM	0.000761 s⁻¹	46500 M⁻¹ s⁻¹	0.125 µg/mL	0.656 nM	305000 M⁻¹ s⁻¹	≤ 0.0002 s⁻¹	0.371 µg/mL	0.342 µg/mL	–
LA63G12.1 humanized anti-VEGF C VHH-Fc antibody (Fc fusion, not shown: Fc part (and any hinge or linker) of the dimerized VHH-Fc antibody) EVQLVESGGGLVQPGGSLRLSCAASGSSFSPYAMGWYRQAPGKQRELVSATTSGGSTLYADSVKGRFTISRDNSKNTVYLQMNSLRAEDTAVYYCYMHWRGSDPENYWGQGTQVTVSS	–	–	–	–	0.182 µg/mL	≤ 0.622 nM	322000 M⁻¹ s⁻¹	≤ 0.0002 s⁻¹	–	0.492 µg/mL	–
LA49G9 anti-VEGF C VHH antibody (VHH, The prokaryotic product was purified on Ni Sepharose) VHH: QLQLVESGGGLVQPGGSLRLSCAASGSMFSMYAMGWYRQAPGKQRELVAATTSGGSTLYADSVKGRFTISRDNAENTVYLQMNSLKPEDTAVYYCYTYWRGSDPENYWGRGTQVTVSS	0.236 µg/mL	10 nM	0.000544 s⁻¹	54300 M⁻¹ s⁻¹	0.0815 µg/mL	0.613 nM	326000 M⁻¹ s⁻¹	–	0.352 µg/mL	0.151 µg/mL	≤ 0.0002 s⁻¹
LA49G9.2 humanized anti-VEGF C VHH-Fc antibody (Fc fusion, not shown: Fc part (and any hinge or linker) of the dimerized VHH-Fc antibody) EVQLVESGGGLVQPGGSLRLSCAASGSMFSMYAMGWYRQAPGKQRELVAATTSGGSTLYADSVKGRFTISRDNSKNTLYLQMNSLRAEDTAVYYCYTYWRGSDPENYWGQGTQVTVSS	–	–	–	–	–	≤ 0.645 nM	310000 M⁻¹ s⁻¹	≤ 0.0002 s⁻¹	–	–	–

Continued, values first:

IC50 (human VEGF C [1])	Kd (human VEGF C [2])	koff (human VEGF C [2])	kon (human VEGF C [2])	IC50 (human VEGF C [3])	Kd (human VEGF C [4])	kon (human VEGF C [4])	koff (human VEGF C [5])	IC50 (human VEGF C [6])	IC50 (human VEGF C [7])	koff (human VEGF C [8])	Molecule
0.0118 µg/mL	–	–	–	–	–	–	–	–	–	–	OPT-302-His
–	5.7 nM	0.00036 s⁻¹	63100 M⁻¹ s⁻¹	0.0215 µg/mL	–	–	–	–	–	–	am63G12-5G8-18B9 affinity-matured humanized anti-VEGF C VHH antibody (VHH, also called Am63G2-5G8-18B9; am63G12.1-5G8-18B9) VHH: EVQLVESGGGLVQPGGSLRLSCAASGSSFSPYAMGWYRQAPGKQRELVSATSSGGFTLYADSVKGRFTISRDNSKNTVYLQMNSLRAEDTAVYYCYTYYREYDPEMYWGQGTQVTVSS
–	6.21 nM	0.000343 s⁻¹	55300 M⁻¹ s⁻¹	–	–	–	–	–	0.0191 µg/mL	–	am63G12-14B11 affinity-matured humanized anti-VEGF C VHH antibody (VHH, also called am63G12.1-14B11) VHH: EVQLVESGGGLVQPGGSLRLSCAASGSSFSPYAMGWYRQAPGKQRELVSATSEGGFTLYADSVKGRFTISRDNSKNTVYLQMNSLRAEDTAVYYCYMHWRGSDPENYWGQGTQVTVSS
